Biological target: T1, recombinant human PSMA (extracellular domain) (human, UniProt Q04609 44-750)
T1 construct: extracellular domain; Bought (R&D Systems); Amine-coupled to a CM5 chip; also called prostate specific membrane antigen
Assay: SPR (BIAcore 2000), PSMA on CM5 chip, 1:1 Langmuir fit

T1 sequence (Q04609 44-750): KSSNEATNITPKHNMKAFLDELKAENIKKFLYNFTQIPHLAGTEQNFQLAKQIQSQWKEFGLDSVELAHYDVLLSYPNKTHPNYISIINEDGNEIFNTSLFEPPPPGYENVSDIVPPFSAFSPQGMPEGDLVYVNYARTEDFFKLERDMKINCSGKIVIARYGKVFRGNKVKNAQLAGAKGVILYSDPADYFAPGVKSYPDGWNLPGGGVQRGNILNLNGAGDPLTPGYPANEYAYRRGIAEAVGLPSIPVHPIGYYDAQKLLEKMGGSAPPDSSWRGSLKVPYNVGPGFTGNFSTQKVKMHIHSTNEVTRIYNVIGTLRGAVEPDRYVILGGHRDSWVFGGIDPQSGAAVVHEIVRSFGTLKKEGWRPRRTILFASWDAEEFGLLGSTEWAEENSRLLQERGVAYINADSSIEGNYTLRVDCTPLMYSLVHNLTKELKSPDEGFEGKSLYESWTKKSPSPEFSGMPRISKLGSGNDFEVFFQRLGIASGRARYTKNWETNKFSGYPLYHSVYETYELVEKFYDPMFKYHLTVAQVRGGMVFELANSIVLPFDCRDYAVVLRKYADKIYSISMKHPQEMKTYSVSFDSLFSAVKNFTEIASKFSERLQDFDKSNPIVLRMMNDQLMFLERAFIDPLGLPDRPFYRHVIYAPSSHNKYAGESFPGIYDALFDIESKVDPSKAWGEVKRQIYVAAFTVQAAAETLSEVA

B1: heptameric PSMA-binding peptide targeting ligand (designed binder)
chain: MWQPDTAHHWATLGPQPQPKPQPKPEPEPQPQGGMPPRPLDVLNRSLKSPVIVRLKGGREFRGTLDGYDIHMNLVLLDAEEIQNGEVVRKVGSVVIRGDTVVFVSPAPGGEHHHHHH
notes: Self-assembled homoheptamer; also called PSMA-Heptamer; P^PSMA heptamer
- Kd: 20 nM
- koff: 1.09e-06 s⁻¹
